# From patent US20230045262A1 (Hoffmann-La Roche, published 2023)
# Like-named read-outs stand apart in the source and are kept apart here.
# T1: human CEA on MKN45 cells (human, UniProt P06731 35-685)
# T1 construct: Natural on the human gastric cancer cell line MKN45; also called cell-expressed CEA; CEACAM5
# T1 sequence: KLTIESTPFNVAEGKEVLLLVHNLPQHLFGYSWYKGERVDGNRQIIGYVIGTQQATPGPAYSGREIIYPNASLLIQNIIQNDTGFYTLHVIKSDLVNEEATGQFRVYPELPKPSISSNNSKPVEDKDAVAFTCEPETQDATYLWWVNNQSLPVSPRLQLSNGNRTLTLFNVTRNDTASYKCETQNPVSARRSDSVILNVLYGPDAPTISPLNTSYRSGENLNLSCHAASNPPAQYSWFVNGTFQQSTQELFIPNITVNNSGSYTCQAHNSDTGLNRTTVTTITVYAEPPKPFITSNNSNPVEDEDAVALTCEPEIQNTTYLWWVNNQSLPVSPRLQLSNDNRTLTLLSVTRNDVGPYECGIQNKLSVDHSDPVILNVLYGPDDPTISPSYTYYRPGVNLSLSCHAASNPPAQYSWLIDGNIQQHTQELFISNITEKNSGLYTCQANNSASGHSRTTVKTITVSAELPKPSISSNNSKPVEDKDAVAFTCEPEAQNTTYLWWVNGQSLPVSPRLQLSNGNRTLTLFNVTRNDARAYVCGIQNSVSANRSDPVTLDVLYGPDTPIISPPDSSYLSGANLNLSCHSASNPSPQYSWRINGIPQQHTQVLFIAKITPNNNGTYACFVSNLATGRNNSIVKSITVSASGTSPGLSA
# Assays:
# [1] = target: T2, human 4-1BB on cells (activated human T cells; HeLa-hu4-1BB-NFκB-luc clone 26; Jurkat-hu4-1BB-NFκB-luc2) (human, UniProt Q07011 24-255); experiment: flow cytometry on Jurkat-hu4-1BB-NFκB-luc2 cells
# T2 construct: also called CD137; cell-expressed 4-1BB
# [2] = target: T1, human CEA on MKN45 cells; experiment: flow cytometry on MKN45 cells
# [3] = target: T2, human 4-1BB on cells (activated human T …); experiment: cell-based or functional assay
# [4] = target: T3, hu4-1BB-SNAP fusion on Hek293 EBNA cells (human, UniProt Q07011 24-255, labeled with the FRET donor Terbium); experiment: TagLite FRET competition on hu4-1BB-SNAP cells; competitor 0.6 nM d2-labelled 20H4.9 IgG; 4 h
# T3 construct: also called hu 4-1BB (TagLite); not shown: SNAP tag
# [5] = target: T4, human FAP on cells (WM-266-4; NIH/3T3-huFAP clone 19) (human, UniProt Q12884 1-760); experiment: flow cytometry on WM-266-4 and NIH/3T3-huFAP clone 19 cells
# T4 construct: transfected in NIH/3T3-huFAP clone 19
# [6] = target: T3, hu4-1BB-SNAP fusion on Hek293 EBNA cells; experiment: TagLite FRET competition on hu4-1BB-SNAP cells; competitor 0.6 nM d2-labelled 20H4.9 IgG; 4 h; remark: listed apart in the source
# [7] = target: T2, human 4-1BB on cells (activated human T …); experiment: cell-based or functional assay; remark: listed apart in the source
# [8] = target: T2, human 4-1BB on cells (activated human T …); experiment: cell-based or functional assay; remark: listed apart in the source
# [9] = target: T2, human 4-1BB on cells (activated human T …); experiment: flow cytometry on activated human CD8+ T cells, PE anti-human Fc secondary
# [10] = target: T2, human 4-1BB on cells (activated human T …); experiment: flow cytometry on activated human CD4+ T cells, PE anti-human Fc secondary
Binder,EC50 [1] [nM],EC50 [2] [nM],EC50 of Jurkat-hu4-1BB-NFκB-luc2 reporter cell line activation curves in the presence of CEA-expressing MKN45 tumor cells [3] [nM],EC50 [4] [nM],EC50 interval [4] [nM],binding result [5],EC50 [6] [nM],EC50 interval [6] [nM],"EC50 of human PBMC activation curves, % CD25+ CD4 (with NIH/3T3-huFAP cells and anti-CD3) [7] [nM]","EC50 of activation of the NFκB signaling pathway (luciferase, HeLa-hu4-1BB-NFκB-luc), no FAP+ cells [8] [nM]","EC50 of activation of the NFκB signaling pathway (luciferase, HeLa-hu4-1BB-NFκB-luc), with 3T3-huFAP cells [8] [nM]","EC50 of activation of the NFκB signaling pathway (luciferase, HeLa-hu4-1BB-NFκB-luc), with WM-266-4 cells [8] [nM]",EC50 [9] [nM],EC50 [10] [nM]
"2+1 4-1BB (20H4.9)/CEA(A5B7) human IgG1 PGLALA (G4S)2, hole VH (bispecific antibody, also called 4-1BB (20H4.9)×CEA (A5B7) 2+1; 4-1BB (20H4.9)×CEA (A5B7) 2+1 (G4S)2) heavy 1: QVQLQQWGAGLLKPSETLSLTCAVYGGSFSGYYWSWIRQSPEKGLEWIGEINHGGYVTYNPSLESRVTISVDTSKNQFSLKLSSVTAADTAVYYCARDYGPGNYDWYFDLWGRGTLVTVSSASTKGPSVFPLAPSSKSTSGGTAALGCLVKDYFPEPVTVSWNSGALTSGVHTFPAVLQSSGLYSLSSVVTVPSSSLGTQTYICNVNHKPSNTKVDKKVEPKSCDKTHTCPPCPAPEAAGGPSVFLFPPKPKDTLMISRTPEVTCVVVDVSHEDPEVKFNWYVDGVEVHNAKTKPREEQYNSTYRVVSVLTVLHQDWLNGKEYKCKVSNKALGAPIEKTISKAKGQPREPQVCTLPPSRDELTKNQVSLSCAVKGFYPSDIAVEWESNGQPENNYKTTPPVLDSDGSFFLVSKLTVDKSRWQQGNVFSCSVMHEALHNHYTQKSLSLSPGGGGGSGGGGSEVQLVESGGGLVQPGRSLRLSCAASGFTVSSYWMHWVRQAPGKGLEWVGFIRNKANGGTTEYAASVKGRFTISRDDSKNTLYLQMNSLRAEDTAVYYCARDRGLRFYFDYWGQGTTVTVSS heavy 2: not shown light: not shown",0.01,8.9,0.03,,,,,,,,,,,
"4-1BB (20H4.9) huIgG1 P329G LALA (antibody, V domains shown, rest is human IgG1 with P329G, L234A, L235A; In the FRET assay the same IgG, labelled with d2, is the tracer; also called 20H4.9 IgG; anti-4-1BB (20H4.9) huIgG1 P329G LALA) VH: QVQLQQWGAGLLKPSETLSLTCAVYGGSFSGYYWSWIRQSPEKGLEWIGEINHGGYVTYNPSLESRVTISVDTSKNQFSLKLSSVTAADTAVYYCARDYGPGNYDWYFDLWGRGTLVTVSS VL: EIVLTQSPATLSLSPGERATLSCRASQSVSSYLAWYQQKPGQAPRLLIYDASNRATGIPARFSGSGSGTDFTLTISSLEPEDFAVYYCQQRSNWPPALTFGGGTKVEIK",,,0.02,1.5,0.9 to 2.5,no binding,1.5,0.9 to 2.4,0.1,1.07,2.17,0.64,0.1,0.1
